Substrate in this data set: CCCCCCCC(=O)SCCNC(=O)CCNC(=O)[C@H](O)C(C)(C)COP(=O)(O)OP(=O)(O)OC[C@H]1O[C@@H](n2cnc3c(N)ncnc32)[C@H](O)[C@@H]1OP(=O)(O)O
The data set can be described thus: purified protein. The conditions noted are these: 5 μM LipB, 25 μM E. coli GcvH as acceptor, 0-160 μM C8-CoA, 50 mM Tris-HCl, 200 mM NaCl, pH 8.0, 30 °C.

The record followed here is paper PMC9307952, “Lipoate protein ligase B primarily recognizes the C8-phosphopantetheine arm of its donor substrate and weakly binds the acyl carrier protein” (The Journal of Biological Chemistry, 2022).

B1: E. coli LipB (EcLipB) (Escherichia coli K-12) (protein)
chain: MYQDKILVRQLGLQPYEPISQAMHEFTDTRDDSTLDEIWLVEHYPVFTQGQAGKAEHILMPGDIPVIQSDRGGQVTYHGPGQQVMYVLLNLKRRKLGVRELVTLLEQTVVNTLAELGIEAHPRADAPGVYVGEKKICSLGLRIRRGCSFHGLALNVNMDLSPFLRINPCGYAGMEMAKISQWKPEATTNNIAPRLLENILALLNNPDFEYITA
As usually defined, the Km is the substrate concentration at which the rate is half of its maximum. Broadly, the Vmax is the rate approached at saturating substrate. For orientation: kcat means the maximal rate divided by the concentration of active sites. As to B1, the Michaelis-Menten constant (Km) amounted to 12.24 ± 0.79 µM, the Vmax stood at 1.08 µmol/min and the turnover number (kcat) worked out at 0.00367 s⁻¹.
